Biological target: Ancylostoma ceylanicum phytochelatin synthase (Ancylostoma ceylanicum)
Experiment: SEC

- stoichiometry N: 2
Substance: Ancylostoma ceylanicum phytochelatin synthase (enzyme)

Reference: PMC3823645
